# Reference: patent US20030224521, “Enhanced homologous recombination mediated by lambda recombination proteins” (The Gov. of the USA Secretary of the Department of Health …, published 2003)
# T1: lambda Beta (Bet) (Bacteriophage lambda, UniProt P03698 P03698:1-261)
# T1 sequence: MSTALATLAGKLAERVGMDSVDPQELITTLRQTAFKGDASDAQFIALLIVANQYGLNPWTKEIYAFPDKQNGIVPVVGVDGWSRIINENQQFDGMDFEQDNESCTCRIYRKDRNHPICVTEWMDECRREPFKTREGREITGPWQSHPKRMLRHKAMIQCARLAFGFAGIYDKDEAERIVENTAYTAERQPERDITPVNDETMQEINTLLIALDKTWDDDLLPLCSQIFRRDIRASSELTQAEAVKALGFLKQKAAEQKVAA
# B1: galK 50-mer oligo (ssDNA)
# DNA: CGGAACCGTATTGCAGCAGCTTTATCATCTGCCGCTGGACGGCGCACAAA
# B2: galK 30-mer oligo (ssDNA)
# DNA: TTGCAGCAGCTTTATCATCTGCCGCTGGAC
# B3: galK 40-mer oligo (ssDNA)
# DNA: CCGTATTGCAGCAGCTTTATCATCTGCCGCTGGACGGCGC
# B4: galK 20-mer oligo (ssDNA)
# DNA: GCAGCTTTATCATCTGCCGC
# B5: galK 60-mer oligo (ssDNA)
# DNA: GCGGTCGGAACCGTATTGCAGCAGCTTTATCATCTGCCGCTGGACGGCGCACAAATCGCG
# Target: T1, lambda Beta (Bet)
# Test: cell_activity; HME9, Exo and Gam co-expressed
# Conditions: tags: expressed from pL of defective prophage in E. coli
# Method: Using the methods described in Examples 2, 3, 5, 10 and 11, lambda operon expression was heat-induced, cells were rendered electroporation-competent, and ssDNA oligonucleotides (200 ng each) were electroporated into E. coli HME9 strain cells. The electroporated ssDNA oligonucleotides included the 70-mer of SEQ ID NO: 11, a 60-mer constructed by removing the last 5 nucleotides from both the 5′ and 3′ ends of SEQ ID NO: 11, and a 50-mer, 40-mer, 30-mer, or 20-mer constructed by removing the last 10, 15, 20, or 25 nucleotides, respectively, from both the 5′ and 3′ ends of SEQ ID NO: 11. As in example 10, the ssDNA oligonucleotides used in this experiment were all designed to restore the galK+ gene upon successful recombination, thereby conferring upon the cell a Gal+ phenotype. Table 7 indicates the number of galK+ recombinants per viable cell, […].
row,Binder,activity
1,B1,0.0004 recombinants per viable cell
2,B2,4.7e-05 recombinants per viable cell
3,B3,0.0004 recombinants per viable cell
4,B4,1e-06 recombinants per viable cell
5,B5,0.0006 recombinants per viable cell
